This is an account of results in patent publication US20230080534A1, “SEMG2 ANTIBODY AND USE THEREOF” (SHANGHAI BIOTROY BIOTECHNIQUE CO., LTD., priority 2020, published 2023).

No end group written: not given here.

One assay addresses T1, CD27 protein (Homo sapiens, UniProt P26842).
T1 construct: the extracellular region of human CD27 protein fused to the Fe fragment of human antibody
T1 sequence (P26842 20-191 limits assumed): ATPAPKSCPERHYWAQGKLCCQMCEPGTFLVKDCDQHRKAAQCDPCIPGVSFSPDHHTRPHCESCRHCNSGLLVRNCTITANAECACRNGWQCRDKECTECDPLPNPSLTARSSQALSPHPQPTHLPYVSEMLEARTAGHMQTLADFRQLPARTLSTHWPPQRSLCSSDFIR
The experiment in a line: ELISA binding of BSA-conjugated SEMG2 (497-509) polypeptides to CD27. The following applies: versus negative BSA control. How it is done:
(§1) FIG. 6 depicts the binding between SEMG2 epitope polypeptides and CD27, and its competitive inhibition of full-length SEMG2 binding to CD27. […] As shown in the figure, different concentrations of peptides are firstly co-incubated with CD27-Fc for binding, and then added into the micro-reaction plate pre-coated with SEMG2 protein. After co-incubation, the unconjugated molecules are washed off, and anti-Fc secondary antibody-HRP are then used for detecting and developing.
These mutant plasmids and CD27 expression vector were co-transfected into HEK293 cells, and the degree of GFP-fused 1-13 polypeptide variants binding to CD27 was detected by co-immunoprecipitation assay. […] Therefore, it can be seen that the amino acids at positions 497, 498, 499, 500, 501, 502, 503, 504, 505, 506 and 508 of SEMG2 have obvious effects on the binding to CD27. The peptide sequence 497-509 was coupled to BSA, and coated onto a 96-well microplate. CD27-hFc at different concentrations was used as the primary antibody to detect the ability of CD27 to bind to the peptide sequence.
In general terms: An ELISA detects its analyte on a solid surface through an enzyme-linked reagent.

The target in assay [1] is T2, binding between full-length SEMG2 and CD27 (Homo sapiens, UniProt P26842).
T2 construct: the extracellular region of human CD27 protein fused to the Fe fragment of human antibody
T2 sequence (P26842 20-191 limits assumed): T1 sequence (P26842 20-191 limits assumed)
The experiment in a line: Peptide competition ELISA: CD27-Fc pre-incubated with peptide, added to SEMG2-coated plate. The following applies: different concentrations of peptide co-incubated with CD27-Fc. How it is done: as §1

A further assay has as its target T3, mouse CD27 (Mus musculus, UniProt P41272).
T3 construct: HA; expressed in transfected cells; host or cells: HEK293
T3 sequence (P41272 24-250): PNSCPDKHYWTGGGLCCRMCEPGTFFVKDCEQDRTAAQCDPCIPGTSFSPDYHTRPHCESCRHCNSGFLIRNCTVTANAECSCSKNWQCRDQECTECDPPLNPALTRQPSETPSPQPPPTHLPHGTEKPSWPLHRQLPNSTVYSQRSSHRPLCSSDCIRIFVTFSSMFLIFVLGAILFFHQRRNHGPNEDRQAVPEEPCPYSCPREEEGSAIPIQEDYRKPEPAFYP
Briefly: Co-immunoprecipitation of GFP-fused SEMG2 fragments with mouse CD27 in co-transfected HEK293 cells. In kind it is binding. To be noted: GFP-fused fragment co-transfected with mouse CD27 into HEK293 cells. As to the method: (§2) In co-immunoprecipitation experiment, cells were lysed in IP buffer (Thermo Scientific) and Roche complete protease inhibitor for 10 minutes, followed by the addition of benzonase (sigma) for 25 minutes at room temperature. The lysate was then centrifuged at 15,000 rpm at 4° C. to remove the precipitate. The supernatant was then incubated with primary antibody slowly rotated overnight at 4° C., followed by the addition of protein A or protein G dynabeads and incubated at 4° C. for 2 hours, washed for 4 times in PBST (PBS with 0.01% Tween 20), eluted with 50 mM DTT in SDS sample buffer for 10 minutes at 100° C., separated with SDS, and immunoblotted as previously described.
To further confirm the key amino acids in the binding between SEMG2-P5 sequence and CD27, SEMG2(497-509) fragment was selected and named as SEMG2-P7 (the specific sequence is QIEKLVEGKSQIQ, abbreviated as P7 or SP7). SEMG2-P7(497-509), SEMG2-P5(positive control), SEMG2-P4 (negative control) or SEMG2-P6 (negative control) was co-transfected with CD27 into HEK293 cells respectively, including human CD27 and mouse CD27. […] This co-immunoprecipitation experiment confirmed that SEMG2(497-509) is the main structure that binds to human and mouse CD27.

For a further assay, the target named is T4, human CD27 (Homo sapiens, UniProt P26842).
T4 construct: HA; expressed in transfected cells; host or cells: HEK293
T4 sequence (P26842 20-260): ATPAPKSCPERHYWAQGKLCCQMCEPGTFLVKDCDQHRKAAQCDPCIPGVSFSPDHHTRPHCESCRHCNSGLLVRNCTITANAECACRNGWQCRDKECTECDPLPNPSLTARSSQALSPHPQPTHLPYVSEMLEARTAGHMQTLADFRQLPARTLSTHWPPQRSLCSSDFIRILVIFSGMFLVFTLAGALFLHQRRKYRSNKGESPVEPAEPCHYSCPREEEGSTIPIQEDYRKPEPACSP
The experiment in a line: Co-immunoprecipitation of GFP-fused SEMG2 fragments with CD27 in co-transfected HEK293 cells. In kind it is binding. The following applies: GFP-fused fragment co-transfected with CD27 into HEK293 cells. How it is done: as §2
To further confirm which part of SEMG-2 binds to CD27, fragments of SEMG2 protein were designed. The amino acid sequence of full-length SEMG2 protein (SEQ ID NO:1) was divided into 6 segments of sequences, fused with GFP and named as SEMG2-P1, SEMG2-P2, SEMG2-P3, SEMG2-P4, SEMG2-P5 and SEMG2-P6 (See Table 1 for specific sequences, with corresponding abbreviation as P1-P6 respectively). Plasmids expressing these amino acid sequences were co-transfected with CD27 into HEK293 cells, and co-immunoprecipitation experiments were performed to identify the main fragment of SEMG2 that binds to CD27. […]

For the substance “BSA-conjugated human SEMG2 (497-509) polypeptide: human SEMG2 (497-509) peptide coupled to BSA (QIEKLVEGKSQIQ; also: coupled to BSA, site not given here)”, the “binding to CD27 protein on the microplate” value with CD27 protein was “can bind”.

With “QIAKLVEGKSQ [SEMG2-derived polypeptide derivative]”, in assay [1], the “inhibitory effect on the binding between full-length SEMG2 and CD27” value (“inhibitory effect” below) is reported as “can inhibit the binding”.

For the substance “QIEKLVEGKSQ (UNSURE (1)..(11) Epitope peptides)”, in assay [1], the “inhibitory effect” value is listed as “can inhibit the binding”. The same measure, in the same setting: under “QIEKLVEGKSQI (UNSURE (1)..(12) Epitope peptides)” stands “can inhibit the binding”. Regarding “QIEKLVEGKSQIQ (UNSURE (1)..(13) Epitope peptides) [SEMG2-P7]”, the “binding to mouse CD27 (co-immunoprecipitation)” value with mouse CD27 is given as “bind”. For the same substance, in assay [1], the “inhibitory effect” value is given as “can inhibit the binding”. Further, the “binding to CD27 (co-immunoprecipitation)” value with human CD27 is “bind”.
